In the assay the target is human VEGF165 ligand (human) (UniProt P15692). As to the kind of experiment: serial dilution mixed with 50 pM human VEGF165 in solution, unbound VEGF165 measured by ELISA. Background: ELISA stands for enzyme-linked immunosorbent assay.
Sequence of human VEGF165 ligand (human) (P15692 other isoform, or with tags, fused parts or gaps limits assumed): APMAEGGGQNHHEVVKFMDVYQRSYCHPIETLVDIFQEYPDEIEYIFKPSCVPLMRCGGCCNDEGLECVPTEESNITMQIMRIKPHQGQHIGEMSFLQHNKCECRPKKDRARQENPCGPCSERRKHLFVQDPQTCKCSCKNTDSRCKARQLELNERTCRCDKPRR

Usually IC50 stands for the concentration that gives 50% inhibition. Read a high IC50 as a need for much substance. In the case of Aflibercept (Fc fusion), the IC50 is 9.82 pM.
